# Data taken from patent US20250179160A1 (OMEROS, published 2025).
# Tests used:
# [1] = target: T1, recombinant human Pro-Factor D (human, UniProt P00746 20-253); assay: ELISA: antibody titrated 3-fold from 3 ug/ml on plate coated with 1 ug/ml recombinant human pro-Factor D; HRP anti-mouse, rat or human secondary; OD450
# T1 construct: also used for the endogenous pro-Factor D detected in 3MC patient serum; also called pro CFD; hPro-CFD
# [2] = target: T2, recombinant human mature Factor D (human, UniProt P00746 26-253); assay: ELISA: antibody titrated 3-fold from 3 ug/ml on plate coated with 1 ug/ml recombinant human mature Factor D; HRP anti-mouse, rat or human secondary; OD450
# T2 construct: also called mature CFD; hCFD
# [3] = target: T3, recombinant human mature Factor D, Strep tagged (human, UniProt P00746 26-253); assay: ELISA with hybridoma supernatant on immobilized antigen
# T3 construct: also called recombinant human mature CFD-Strep tagged; recombinant human mature Factor D-Streptavidin; not shown: Strep tag
Binder,EC50 (read off the curve) [1],binding result [2],binding result [3]
"13A10, purified recombinant, human IgG4 (antibody, V domains shown, Mouse variable regions on human IgG4 (S228P) and human kappa constant regions) VH: DVQLQESGPGLVKPSQSLSLTCTVTGYSITSDYAWNWIRQFPGNKLEWMGYISYIGGIGYNPSLKSRISITRDTSKNQFFLHLNSVTTGDTATYYCARNGAMDFWGQGISVTVSS VL: DIVLTQSPASLAVSLGQRATISCKASQSVDYDGDSYMNWYQQKPGQPPKLLIYDASNLESGIPARFSGSGSGTDFTLNIHPVEEEDAATYYCQQSNEAPWTFGGGTKLEIKR",~0.02 µg/mL,no binding (tested: 3 ug/ml),
"11H1, hybridoma supernatant (antibody, V domains shown, Mouse hybridoma antibody) VH: EVQLVESGGGLVQPKGSLKLSCAASGFSFNTYAMNWVRQAPGKGLEWVARIRSKSNNYATHYADSVKDRFTISRDDSESMLYLQMNNLKTEDTAMYYCVRQGYYWYFDVWGTGTTVTVSS VL: DVLMTQTPLSLPVSLGDQASISCRSSQSIVHSNGNTYLEWYLQKPGQSPKLLIYTVSNRFSGVPDRFSGSGSGTDFTLKISRVEAEDLGVYYCFQGSHVPWTFGGGTKLEIKR",,,binds
"7H2, hybridoma supernatant (antibody, V domains shown, Mouse hybridoma antibody) VH: EVQVVESGGGLVRPKGSLKLSCAASGFSFNTYAMNWVRQAPGKGLEWVARIRSKSNNYATYYADSVKDRFTISRDDSESMLSLQMNNLKTEDTAMYYCVRQGYYWYFDVWGTGTTVTVSS VL: DVLMTQTPLSLPVSLGDQASISCRSSQSIVHSNGNTYLEWYLQKPGQSPKLLIYTVSNRFSGVPDRFRGSGSGTDFTLKISRVEAEDLGVYYCFQGSHVPWTFGGGTKLEIKR",,,binds
"18F5, purified recombinant, human IgG4 (antibody, V domains shown, Mouse variable regions on human IgG4 (S228P) and human kappa constant regions) VH: EVKLEESGGGLVQPGGSMKLSCVASGFTFGNYWMSWVRQSPEKGLEWVAEIRLKSDNYATHYAESVKGKFTISRDDSKSRLYLQMNSLRGEDTGLYYCTNAWFASWGQGTLVTVSA VL: DIVMSQSPSSLAVSVGEKVTMSCMSSQSLLYSKDQKNYLAWYQQKPGQSPKLLIYWASTRESGVPDRFTGSGSGTDFTLTISSVKAEDLAVYYCLQYYTYPYTFGGGTKLEIKR",~0.03 µg/mL,no binding (tested: 3 ug/ml),
"2A4, purified recombinant, human IgG4 (antibody, V domains shown, Mouse variable regions on human IgG4 (S228P) and human kappa constant regions) VH: EVKLEESGGGLVQPGGSMKLSCVASGFTFSTYWMSWVRQSPEKGLEWVAEIRLKSDNYATHYTESVKGKFTISRDDSKSRLYLQMNSLRVEDTGIYYCTNAWFAYWGQGTLVTVSA VL: DIVMSQSPSSLAVSVGEKFTMSCKSSQSLLYSRDQKNYLAWYQQQPGQSPKLLIYWASTRESGVPDRFTGSGSGTDFTLTISSVKTEDLAVYYCLQYYSYPYTFGGGTKLEIKR",~0.03 µg/mL,no binding (tested: 3 ug/ml),
